Measurements published in the supplement of paper PMC7125110.
± gives the standard error. For some assays here: Fewer inactive variants are shown than the library holds.

B1: glmS ribozyme (parent)
chain: AUAAAAGCGCCAGAACUACAGAAAUGUAGUUGACGAGGAGGAGGUUUAUCGAAUUUUCGGCGGAUGCCUCCAAA

Columns and labels:
Details in all cases: with glucosamine-6-phosphate
glucosamine-6-phosphate [1] = variants of: B1; assay: kcat; higher = faster cleavage; RNA array
How it was run: (§1)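 kcat and KM were obtained from weighted Michaelis–Menten fits across concentrations of kobs values. Those came from one- or two-exponential decay fits to per-tile medians normalised to baseline and to non-cleaving reference variants. The variants were barcoded ribozymes transcribed in situ by E. coli RNA polymerase on sequenced MiSeq chips and tracked through a hybridised Cy3 probe at 37 °C, with 40 μM to 10 mM glucosamine-6-phosphate in HEPES/KCl/Mg(OAc)2 buffer flowed in.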

glucosamine-6-phosphate [2] = variants of: B1; assay: self-cleavage kobs at 640 uM GlcN6P; higher = faster cleavage; RNA array
How it was run: as §1

glucosamine-6-phosphate [3] = variants of: B1; assay: self-cleavage kobs at 2500 uM GlcN6P; higher = faster cleavage; RNA array
How it was run: as §1

glucosamine-6-phosphate [4] = variants of: B1; assay: self-cleavage kobs at 10000 uM GlcN6P; higher = faster cleavage; RNA array
How it was run: as §1

glucosamine-6-phosphate [5] = variants of: B1; assay: KM; higher = weaker cofactor use; RNA array
How it was run: as §1

glucosamine-6-phosphate [6] = variants of: B1; assay: self-cleavage kobs at 40 uM GlcN6P; higher = faster cleavage; RNA array
How it was run: as §1

glucosamine-6-phosphate [7] = variants of: B1; assay: self-cleavage kobs at 160 uM GlcN6P; higher = faster cleavage; RNA array
How it was run: as §1

| Variant | kcat (glucosamine-6-phosphate [1]) [s⁻¹] | self-cleavage kobs at 640 uM GlcN6P (glucosamine-6-phosphate [2]) [s⁻¹] | self-cleavage kobs at 2500 uM GlcN6P (glucosamine-6-phosphate [3]) [s⁻¹] | self-cleavage kobs at 10000 uM GlcN6P (glucosamine-6-phosphate [4]) [s⁻¹] | KM (glucosamine-6-phosphate [5]) [µM] | self-cleavage kobs at 40 uM GlcN6P (glucosamine-6-phosphate [6]) [s⁻¹] | self-cleavage kobs at 160 uM GlcN6P (glucosamine-6-phosphate [7]) [s⁻¹] |
| --- | --- | --- | --- | --- | --- | --- | --- |
| A14G C67G C71U | 5.11e-05 ± 1.2e-05 | 9.52e-05 ± 3.5e-05 | 5.17e-05 ± 1.4e-05 | 4.43e-05 ± 1.3e-05 |  |  |  |
| A14C U31G G40C | 0.00179 ± 0.00038 | 0.000477 ± 9.7e-05 | 0.00097 ± 0.00023 | 0.00184 ± 0.00041 | 1560 ± 520 | 5.2e-05 ± 1.1e-05 |  |
| A14U C50A | 1.95e-05 ± 4.6e-06 |  |  |  |  |  |  |
| A14C | 0.0129 ± 0.0023 | 0.00185 ± 6.7e-05 | 0.00541 ± 0.00017 | 0.00971 ± 0.00024 | 3460 ± 740 | 0.000163 ± 2.7e-06 | 0.000466 ± 1.5e-05 |
| A14U | 0.0182 ± 0.0048 | 0.00328 ± 0.00015 | 0.00942 ± 0.00041 | 0.0143 ± 0.00047 | 2730 ± 850 | 0.000298 ± 5.5e-06 | 0.00073 ± 3e-05 |
| A14G | 0.0996 ± 0.0091 | 0.0249 ± 0.0012 | 0.0558 ± 0.0042 | 0.0902 ± 0.0048 | 1720 ± 180 | 0.00231 ± 4.7e-05 | 0.00764 ± 0.00054 |
| A14U C61A C70A | 1.21e-05 ± 3.3e-06 |  |  |  |  |  |  |
| A14U C16A | 0.000551 ± 6.3e-05 | 0.000126 ± 1.9e-05 | 0.000363 ± 4.8e-05 | 0.000451 ± 5.1e-05 | 1840 ± 400 |  | 5.14e-05 ± 1.1e-05 |
| A14C C58G | 0.000165 ± 6.6e-05 | 3.92e-05 ± 1e-05 | 4.23e-05 ± 8.3e-06 | 0.000108 ± 1.2e-05 |  |  |  |
| G13U G40U | 7.77e-05 ± 1.2e-05 | 3.55e-05 ± 9.5e-06 | 8.94e-05 ± 1.4e-05 | 6.79e-05 ± 8.5e-06 |  |  |  |
| G13U G40C | 8.27e-05 ± 6.4e-06 |  | 4.94e-05 ± 1.9e-05 | 7.64e-05 ± 9.8e-06 | 994 ± 460 |  |  |
| A14U A15C | 9.41e-05 ± 8.4e-06 | 3.12e-05 ± 1.3e-05 | 5.02e-05 ± 9.3e-06 | 8.11e-05 ± 1.1e-05 | 1880 ± 510 |  |  |
| A14U A15G | 0.0123 ± 0.0018 | 0.00234 ± 0.00043 | 0.0077 ± 0.0012 | 0.00944 ± 0.0012 | 2410 ± 520 | 0.000225 ± 4e-05 | 0.000672 ± 0.00015 |
| G13U C67A | 0.000419 ± 9e-05 | 9.71e-05 ± 9.5e-06 | 0.000225 ± 2.3e-05 | 0.000504 ± 0.00015 | 2040 ± 670 |  | 3.99e-05 ± 9e-06 |
| G13U C67G | < 1e-05 |  |  |  |  | < 1e-05 |  |
| A14C G35C | < 1e-05 |  |  | < 1e-05 |  | < 1e-05 |  |
| G13C C68A | 1.1e-05 ± 2.3e-06 |  |  |  |  |  |  |
| G13U U57A | 2.08e-05 ± 4.9e-06 |  |  |  |  | < 1e-05 |  |

| Variant | kcat (glucosamine-6-phosphate [1]) [s⁻¹] | self-cleavage kobs at 640 uM GlcN6P (glucosamine-6-phosphate [2]) [s⁻¹] | self-cleavage kobs at 2500 uM GlcN6P (glucosamine-6-phosphate [3]) [s⁻¹] | self-cleavage kobs at 10000 uM GlcN6P (glucosamine-6-phosphate [4]) [s⁻¹] | KM (glucosamine-6-phosphate [5]) [µM] | self-cleavage kobs at 40 uM GlcN6P (glucosamine-6-phosphate [6]) [s⁻¹] | self-cleavage kobs at 160 uM GlcN6P (glucosamine-6-phosphate [7]) [s⁻¹] |
| --- | --- | --- | --- | --- | --- | --- | --- |
| G13U A14G C61U C70G | 1.9e-05 ± 5.3e-06 |  |  |  |  |  |  |
| G13U U47A | 0.00106 ± 0.00021 | 0.000144 ± 1.5e-05 | 0.000332 ± 5e-05 | 0.000776 ± 8.7e-05 | 4310 ± 1300 | 2.95e-05 ± 1.5e-05 | 3.53e-05 ± 1.3e-05 |
| A14C C67A | 0.00149 ± 0.00032 | 0.000337 ± 4.4e-05 | 0.00079 ± 0.00013 | 0.00146 ± 0.00024 | 1850 ± 600 | 3.89e-05 ± 9.3e-06 | 0.000145 ± 2.4e-05 |
| A14C C67U | 0.00159 ± 0.00047 | 0.000511 ± 6e-05 | 0.000783 ± 8.1e-05 | 0.00184 ± 0.00023 | 1720 ± 820 | 5.24e-05 ± 9e-06 | 0.000119 ± 1.7e-05 |
| A14C C67G | 0.000353 ± 6.7e-05 | 6.56e-05 ± 5.7e-06 | 0.000156 ± 1.5e-05 | 0.000293 ± 2.8e-05 | 2730 ± 860 |  | 3.67e-05 ± 7.3e-06 |
| G13C C58A C61U C70G | 1.31e-05 ± 2.2e-06 |  |  |  |  |  |  |
| A14C U31A A64C | 1.75e-05 ± 3.8e-06 |  |  |  |  |  | < 1e-05 |
| G13C U30G | 3.93e-05 ± 3.7e-06 |  |  | 3.23e-05 ± 9.3e-06 | 2100 ± 830 |  |  |
| A14G C68A U69G | 0.000118 ± 2.9e-05 | 0.000112 ± 2.8e-05 | 9.76e-05 ± 1.8e-05 |  |  |  |  |
| A14G A64G U65A | 0.00407 ± 0.0014 | 0.00307 ± 0.0012 | 0.00271 ± 0.0008 | 0.00718 ± 0.0031 |  | 0.000284 ± 0.0001 | 0.000621 ± 0.00019 |
| A14U A39U A52G | 0.00264 ± 0.00045 |  | 5.72e-05 ± 1.2e-05 | 0.000214 ± 3.7e-05 |  |  |  |
| A14G G60C | 1.11e-05 ± 3.4e-06 |  |  |  |  |  |  |
| A14G A48C | 0.00102 ± 4.5e-05 | 0.000205 ± 8.1e-05 | 0.000509 ± 6.7e-05 | 0.000803 ± 7.7e-05 | 2630 ± 260 |  | 5.84e-05 ± 1.5e-05 |
| G13U C71U | 0.00114 ± 0.00015 | 0.000229 ± 3.7e-05 | 0.000673 ± 8.2e-05 | 0.000946 ± 9.8e-05 | 2020 ± 470 | 2.24e-05 ± 7.7e-06 | 0.000105 ± 1.7e-05 |
| A14G G32C | 0.000222 ± 9e-06 | 5.72e-05 ± 1.5e-05 | 0.000115 ± 4.1e-05 | 0.000188 ± 2.8e-05 | 1900 ± 190 |  |  |
| G13C A53C | 2.72e-05 ± 1.4e-06 |  |  | 2.49e-05 ± 1.2e-05 | 802 ± 260 | < 1e-05 | < 1e-05 |
| A14G C50G | 4.1e-05 ± 7.6e-06 |  | 4.52e-05 ± 2e-05 |  |  |  |  |
